Measurements taken from US12091446 (NATIONAL TECHNOLOGY AND ENGINEERING SOLUTIONS OF SANDIA, dated 2024).

B1: BP2A6 Nb-huFc (Fc fusion)
chain: EVQLQASGGGFVQPGGSLRLSCAASGQTFSHYIMGWFRQAPGKEREFVSAISAGQGHATYYADSVKGRFTISRDNSKNTVYLQMNSLRAEDTATYYCAKYQDTIAPLYWGQGTQVTVSS
B2: AP1C3 Nb-huFc (Fc fusion)
chain: EVQLQASGGGFVQPGGSLRLSCAASGRTYRGYSMGWFRQAPGKEREFVSAISSWSDDWTAYADSVKGRFTISRDNSKNTVYLQMNSLRAEDTATYYCAWQYIDEIQYYWGQGTQVTVSS
B3: AP1B6 Nb-huFc (Fc fusion)
chain: EVQLQASGGGFVQPGGSLRLSCAASGSAFQIYAMGWFRQAPGKEREFVSAISSTDSETDHYADSVKGRFTISRDNSKNTVYLQMNSLRAEDTATYYCAVNGFDYAHSKAGPQVYWGQGTQVTVSS
B4: BP1A10 Nb-huFc (Fc fusion)
chain: EVQLQASGGGFVQPGGSLRLSCAASGQPSDRYIMGWFRQAPGKEREFVSAISQGAANKTAYADSVKGRFTISRDNSKNTVYLQMNSLRAEDTATYYCATHFNWQNYSYWGQGTQVTVSS
B5: AP1A5 Nb-huFc (Fc fusion)
chain: EVQLQASGGGFVQPGGSLRLSCAASGSTASHYTMGWFRQAPGKEREFVSAISSGRDHAKQYADSVKGRFTISRDNSKNTVYLQMNSLRAEDTATYYCAYEEINATQKDTLYWGQGTQVTVSS
B6: AP1D4 Nb-huFc (Fc fusion)
chain: EVQLQASGGGFVQPGGSLRLSCAASGHTFDAHRMGWFRQAPGKEREFVSAISSWGQSSTYYADSVKGRFTISRDNSKNTVYLQMNSLRAEDTATYYCAQTDEGNQYVYWGQGTQVTVSS
B7: KP1B5 Nb-huFc (Fc fusion)
chain: EVQLQASGGGFVQPGGSLRLSCAASGFTFDWSAMGWFRQAPGKEREFVSAISSSTSESTTYADSVKGRFTISRDNSKNTVYLQMNSLRAEDTATYYCATYYGGKTVEQDFYWGQGTQVTVSS
B8: KP1C9 Nb-huFc (Fc fusion)
chain: EVQLQASGGGFVQPGGSLRLSCAASGRTFDAYSMGWFRQAPGKEREFVSAISSWSDDWTAYADSVKGRFTISRDNSKNTVYLQMNSLRAEDTATYYCALQNTKEDRLYWGQGTQVTVSS
B9: DP4F2 Nb-huFc (Fc fusion)
chain: EVQLQASGGGFVQPGGSLRLSCAASGTTYSERVMGWFRQAPGKEREFVSAISSGQSDQTYYYADSVKGRFTISRDNSKNTVYLQMNSLRAEDTATYYCAPFAGDANLPREWYWGQGTQVTVSSA
B10: BP2A3 Nb-huFc (Fc fusion)
chain: EVQLQASGGGFVQPGGSLRLSCAASGRTFSAYSMGWFRQAPGKEREFVSAISAGDGAASYYADSVKGRFTISRDNSKNTVYLQMNSLRAEDTATYYCAHYYTTSATLDYAYWGQGTQVTVSS
B11: KP2C6 Nb-huFc (Fc fusion)
chain: EVQLQASGGGFVQPGGSLRLSCAASGRTFTSFHMGWFRQAPGKEREFVSAISSGDDGTQYYADSVKGRFTISRDNSKNTVYLQMNSLRAEDTATYYCAAYTTTTVPQYWGQGTQVTVSS
B12: BP1B1 Nb-huFc (Fc fusion)
chain: EVQLQASGGGFVQPGGSLRLSCAASGRTFSGYIMGWFRQAPGKEREFVSAISQGDSYASYYADSVKGRFTISRDNSKNTVYLQMNSLRAEDTATYYCALYDINTVPYYWGQGTQVTVSS

Biological target: T1, SARS-COV-2 spike, Wuhan (original) (SARS-COV-2, UniProt P0DTC2 14-1273)
Experiment: cell-based or functional assay

Binder | EC50, neutralization of spike pseudotyped virus [nM]
B1 | 0.77
B2 | 1.04
B3 | 3.32
B4 | 8.38
B5 | 11.9
B6 | 6.62

Biological target: T1, SARS-COV-2 spike, Wuhan (original)
Experiment: cell-based or functional assay
Remark: another data set of the same source

Binder | EC50, neutralization of spike pseudotyped virus [nM]
B7 | 896
B8 | 2.89
B9 | 65.8
B10 | 58.5
B11 | 517
B12 | 4.13
